Measured values: patent publication US20180155451A1 (published 2018)

T1: FcγRIIb extracellular domain with C-terminal His tag (human, UniProt P31994 43-217)
T1 construct: extracellular domain; also called FcgRIIb; 2b; not shown: His tag at the C terminus
T1 sequence (looked up): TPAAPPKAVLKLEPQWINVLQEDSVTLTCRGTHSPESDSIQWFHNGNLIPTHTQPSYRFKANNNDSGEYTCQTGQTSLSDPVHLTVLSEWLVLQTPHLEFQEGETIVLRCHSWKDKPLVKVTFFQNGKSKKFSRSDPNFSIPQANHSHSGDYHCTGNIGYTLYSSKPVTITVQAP

B1: GpH7-A5/GpH7-B3 variant S267_10E/GpL16-k0 (heterodimerized antibody, He Ab) (antibody, human IgG1, kappa)
heavy 1: not shown
heavy 2: not shown
light: DIVMTQSPLSLPVTPGEPASISCQASESLVHSNRNTYLHWYLQKPGQSPQLLIYKVSNRFSGVPDRFSGSGSGTDFTLKISRVEAEDVGVYYCSQNTHVPPTFGQGTKVEIERTVAAPSVFIFPPSDEQLKSGTASVVCLLNNFYPREAKVQWKVDNALQSGNSQESVTEQDSKDSTYSLSSTLTLSKADYEKHKVYACEVTHQGLSSPVTKSFNRGEC
notes: Anti-glypican-3 IgG1; the alteration is in the GpH7-B3 chain only; also called S267E
B2: GpH7-A5/GpH7-B3 variant L234_09D/GpL16-k0 (heterodimerized antibody, He Ab) (antibody, human IgG1, kappa)
heavy 1: not shown
heavy 2: not shown
light: B1 light
notes: Anti-glypican-3 IgG1; the alteration is in the GpH7-B3 chain only; also called L234D
B3: GpH7-A5/GpH7-B3 variant P238_10E/GpL16-k0 (heterodimerized antibody, He Ab) (antibody, human IgG1, kappa)
heavy 1: not shown
heavy 2: not shown
light: B1 light
notes: Anti-glypican-3 IgG1; the alteration is in the GpH7-B3 chain only; also called P238E
B4: GpH7-A5/GpH7-B3 variant S239_03V/GpL16-k0 (heterodimerized antibody, He Ab) (antibody, human IgG1, kappa)
heavy 1: not shown
heavy 2: not shown
light: B1 light
notes: Anti-glypican-3 IgG1; the alteration is in the GpH7-B3 chain only; also called S239V
B5: GpH7-A5/GpH7-B3 variant L235_20W/GpL16-k0 (heterodimerized antibody, He Ab) (antibody, human IgG1, kappa)
heavy 1: not shown
heavy 2: not shown
light: B1 light
notes: Anti-glypican-3 IgG1; the alteration is in the GpH7-B3 chain only; also called L235W
B6: GpH7-A5/GpH7-B3 variant L235_16H/GpL16-k0 (heterodimerized antibody, He Ab) (antibody, human IgG1, kappa)
heavy 1: not shown
heavy 2: not shown
light: B1 light
notes: Anti-glypican-3 IgG1; the alteration is in the GpH7-B3 chain only; also called L235H
B7: GpH7-A5/GpH7-B3 variant G237_15Y/GpL16-k0 (heterodimerized antibody, He Ab) (antibody, human IgG1, kappa)
heavy 1: not shown
heavy 2: not shown
light: B1 light
notes: Anti-glypican-3 IgG1; the alteration is in the GpH7-B3 chain only; also called G237Y
B8: GpH7-A5/GpH7-B3 variant S267_01G/GpL16-k0 (heterodimerized antibody, He Ab) (antibody, human IgG1, kappa)
heavy 1: not shown
heavy 2: not shown
light: B1 light
notes: Anti-glypican-3 IgG1; the alteration is in the GpH7-B3 chain only; also called S267G
B9: GpH7-A5/GpH7-B3 variant G237_13S/GpL16-k0 (heterodimerized antibody, He Ab) (antibody, human IgG1, kappa)
heavy 1: not shown
heavy 2: not shown
light: B1 light
notes: Anti-glypican-3 IgG1; the alteration is in the GpH7-B3 chain only; also called G237S
B10: GpH7-A5/GpH7-B3 variant P238_06M/GpL16-k0 (heterodimerized antibody, He Ab) (antibody, human IgG1, kappa)
heavy 1: not shown
heavy 2: not shown
light: B1 light
notes: Anti-glypican-3 IgG1; the alteration is in the GpH7-B3 chain only; also called P238M
B11: GpH7-A5/GpH7-B3 variant S239_07I/GpL16-k0 (heterodimerized antibody, He Ab) (antibody, human IgG1, kappa)
heavy 1: not shown
heavy 2: not shown
light: B1 light
notes: Anti-glypican-3 IgG1; the alteration is in the GpH7-B3 chain only; also called S239I
B12: GpH7-A5/GpH7-B3 variant P238_19Q/GpL16-k0 (heterodimerized antibody, He Ab) (antibody, human IgG1, kappa)
heavy 1: not shown
heavy 2: not shown
light: B1 light
notes: Anti-glypican-3 IgG1; the alteration is in the GpH7-B3 chain only; also called P238Q
B13: GpH7-A5/GpH7-B3 variant S239_01G/GpL16-k0 (heterodimerized antibody, He Ab) (antibody, human IgG1, kappa)
heavy 1: not shown
heavy 2: not shown
light: B1 light
notes: Anti-glypican-3 IgG1; also called S239G
B14: GpH7-A5/GpH7-B3 variant S239_08L/GpL16-k0 (heterodimerized antibody, He Ab) (antibody, human IgG1, kappa)
heavy 1: not shown
heavy 2: not shown
light: B1 light
notes: Anti-glypican-3 IgG1; the alteration is in the GpH7-B3 chain only; also called S239L
B15: GpH7-A5/GpH7-B3 variant L235_09D/GpL16-k0 (heterodimerized antibody, He Ab) (antibody, human IgG1, kappa)
heavy 1: not shown
heavy 2: not shown
light: B1 light
notes: Anti-glypican-3 IgG1; the alteration is in the GpH7-B3 chain only; also called L235D
B16: GpH7-A5/GpH7-B3 variant G237_19Q/GpL16-k0 (heterodimerized antibody, He Ab) (antibody, human IgG1, kappa)
heavy 1: not shown
heavy 2: not shown
light: B1 light
notes: Anti-glypican-3 IgG1; the alteration is in the GpH7-B3 chain only; also called G237Q
B17: GpH7-A5/GpH7-B3 variant L235_15Y/GpL16-k0 (heterodimerized antibody, He Ab) (antibody, human IgG1, kappa)
heavy 1: not shown
heavy 2: not shown
light: B1 light
notes: Anti-glypican-3 IgG1; the alteration is in the GpH7-B3 chain only; also called L235Y
B18: GpH7-A5/GpH7-B3 variant P238_16H/GpL16-k0 (heterodimerized antibody, He Ab) (antibody, human IgG1, kappa)
heavy 1: not shown
heavy 2: not shown
light: B1 light
notes: Anti-glypican-3 IgG1; the alteration is in the GpH7-B3 chain only; also called P238H
B19: GpH7-A5/GpH7-B3 variant P238_12R/GpL16-k0 (heterodimerized antibody, He Ab) (antibody, human IgG1, kappa)
heavy 1: not shown
heavy 2: not shown
light: B1 light
notes: Anti-glypican-3 IgG1; the alteration is in the GpH7-B3 chain only; also called P238R
B20: GpH7-A5/GpH7-B3 variant S267_06M/GpL16-k0 (heterodimerized antibody, He Ab) (antibody, human IgG1, kappa)
heavy 1: not shown
heavy 2: not shown
light: B1 light
notes: Anti-glypican-3 IgG1; the alteration is in the GpH7-B3 chain only; also called S267M
B21: GpH7-A5/GpH7-B3 variant P238_07I/GpL16-k0 (heterodimerized antibody, He Ab) (antibody, human IgG1, kappa)
heavy 1: not shown
heavy 2: not shown
light: B1 light
notes: Anti-glypican-3 IgG1; the alteration is in the GpH7-B3 chain only; also called P238I

Each binder was assayed against T2, FcγRIIIa extracellular domain with C-terminal His tag (human, UniProt P08637 17-208) (assay: SPR (Biacore), captured antibody, FcγR as analyte; relative to GpH7-A5/GpH7-B3/GpL16-k0 = 100).
T2 construct: extracellular domain; also called FcgRIIIa; 3a; not shown: His tag at the C terminus
Procedure: (§1) Analysis of interaction between objective antibody and the FcγR was carried out using Biacore T100 (GE Healthcare). HBS-EP+ (GE Healthcare) was used as the running buffer, and the measurement temperature was set to 25° C. Chips produced by immobilizing the antigen peptide by the amine coupling method to a Series S Sencor Chip CM5 (GE Healthcare), or alternatively, chips produced by allowing preliminarily biotinylated antigen peptides to interact with and immobilize onto a Series S Sensor Chip SA (certified) (GE Healthcare) were used. Antibodies of interest were captured onto an antigen peptide-immobilized chip, and allowed to interact to each FcγR diluted with running buffer. To regenerate and repeatedly use the chip, the antibodies captured on the chip were washed off by reacting 10 mM glycine-HCl, pH 1.5.
(§2) The FcγR-binding activity of each antibody was assessed primarily using as an indicator the FcγR-binding activity and dissociation constant for FcγR.

T2 sequence (P08637 17-208): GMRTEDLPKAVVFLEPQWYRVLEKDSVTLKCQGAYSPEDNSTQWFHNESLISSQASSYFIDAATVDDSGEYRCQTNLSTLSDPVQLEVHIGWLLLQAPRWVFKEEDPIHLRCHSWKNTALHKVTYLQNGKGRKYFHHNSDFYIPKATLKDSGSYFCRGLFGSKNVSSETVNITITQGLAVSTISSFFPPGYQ

Row | He/Con_3a (IIIa binding) | Binder
1 | 91.9 % of HeCon Ab | B1
2 | 117 % of HeCon Ab | B2
3 | 105 % of HeCon Ab | B3
4 | 76.6 % of HeCon Ab | B4
5 | 76.4 % of HeCon Ab | B5
6 | 59.1 % of HeCon Ab | B6
7 | 22.1 % of HeCon Ab | B7
8 | 53.8 % of HeCon Ab | B8
9 | 38.4 % of HeCon Ab | B9
10 | 30.5 % of HeCon Ab | B10
11 | 79.3 % of HeCon Ab | B11
12 | 55.8 % of HeCon Ab | B12
13 | 76.2 % of HeCon Ab | B13
14 | 95.3 % of HeCon Ab | B14
15 | 91.6 % of HeCon Ab | B15
16 | 43.3 % of HeCon Ab | B16
17 | 80.6 % of HeCon Ab | B17
18 | 30.7 % of HeCon Ab | B18
19 | 12.2 % of HeCon Ab | B19
20 | 66 % of HeCon Ab | B20
21 | 27.8 % of HeCon Ab | B21

What follows are binders tested against T1, FcγRIIb extracellular domain with … in the same assay as above.
Procedure: as §1, §2

Row | He/Con_2b (IIb binding) | Binder
22 | 379 % of HeCon Ab | B1
23 | 150 % of HeCon Ab | B2
24 | 232 % of HeCon Ab | B3
25 | 108 % of HeCon Ab | B4
26 | 147 % of HeCon Ab | B5
27 | 76.9 % of HeCon Ab | B6
28 | 152 % of HeCon Ab | B7
29 | 105 % of HeCon Ab | B8
30 | 111 % of HeCon Ab | B9
31 | 174 % of HeCon Ab | B10
32 | 107 % of HeCon Ab | B11
33 | 110 % of HeCon Ab | B12
34 | 144 % of HeCon Ab | B13
35 | 140 % of HeCon Ab | B14
36 | 106 % of HeCon Ab | B15
37 | 108 % of HeCon Ab | B16
38 | 149 % of HeCon Ab | B17
39 | 115 % of HeCon Ab | B18
40 | 51.4 % of HeCon Ab | B19
41 | 210 % of HeCon Ab | B20
42 | 80 % of HeCon Ab | B21
